Assay results from patent US20180201655A1 (University of California, published 2018).

B1: R4-1 (other)
chain: MKTGEQRVKIATLLSENEKKIVDKASQDLWRRRPDFIAPGGIAFSQRERALCLRDYRWYLHLITFCLLAGDKDPIESIGLIGIREMYNSLGVPVPGMMESIRCLKEASLSLLDEEDAKETAPYFDYIIKAMS
modifications: biliverdin (BV) covalently attached
notes: Evolved APCα fluorescent protein of round 4; runs as a tetramer on native PAGE; also called R4-1+BV; not shown: polyhistidine tag on the C terminus
B2: R10-10 (other)
chain: MKTCEQRVNIATLLTENKKKIVDKASQDLWRRHPDLIAPGGIAFSQRDRALCLRDYGWYLHLITFCLLAGDKGPIESIGLIGIREMYNSLGVPVPAMMESIRCLKEASLSLLDEEDANETAPYFDYIIKAMS
modifications: biliverdin (BV) covalently attached
notes: Evolved APCα fluorescent protein of round 10; runs as a homodimer on native PAGE; also called R10-10+BV; not shown: polyhistidine tag on the C terminus
B3: smURFP + BVMe2 (other)
chain: MKTSEQRVNIATLLTENKKKIVDKASQDLWRRHPDLIAPGGIAFSQRDRALCLRDYGWFLHLITFCLLAGDKGPIESIGLISIREMYNSLGVPVPAMMESIRCLKEASLSLLDEEDANETAPYFDYIIKAMS
modifications: biliverdin dimethyl ester (BVMe2) attached, a single BVMe2 per homodimer
notes: smURFP purified without chromophore, BVMe2 added in vitro; detected by mass spectrometry as the homodimer + BVMe2; also called smURFP+1BVMe2; not shown: polyhistidine tag on the C terminus
B4: small ultra-red fluorescent protein (smURFP) + BV (other)
chain: MKTSEQRVNIATLLTENKKKIVDKASQDLWRRHPDLIAPGGIAFSQRDRALCLRDYGWFLHLITFCLLAGDKGPIESIGLISIREMYNSLGVPVPAMMESIRCLKEASLSLLDEEDANETAPYFDYIIKAMS
modifications: biliverdin (BV) covalently attached at C52; predominant species has one BV per homodimer
notes: purified from E. coli co-expressing HO-1; runs as a homodimer on native PAGE; not shown: polyhistidine tag on the C terminus

Experiments:
[1] = target: the molecule itself; test: native PAGE, self-association (tetramer)
From the text: (§1) FIG. 9A-FIG. 9C: Quaternary structure characterization of smURFP and TDsmURFP. (A) Native PAGE gel of APCαFPs. Monomeric IFP1.4 (36.5 kD) was ran as a reference. R4-1 runs as a tetramer, while R10-10 and smURFP run as a homodimer (32 kD). (B) Native PAGE gel of TDsmURFP. Monomeric IFP1.4 (36.5 kD) and tandem dimer Tomato (tdTomato, 54.2 kD) were ran as references. TDsmURFP (32.9 kD) runs slightly higher than smURFP due to 23 amino acid linker. (C) SDS denaturing PAGE gel of smURFP and TDsmURFP. BV was imaged by addition of zinc. All FPs show correct MW and covalently attached BV. […] (A-C) Each FP was run on two lanes. EX is excitation maximum and EM is emission maximum.
(§2) smURFP ran as a 32-kD homodimer on a native gel. R10-10 ran as a32-kD homodimer, while R4-1 was atetramer (FIG. 9a). Tandem dimer smURFP (TDsmURFP) was created by adding a 23-amino-acid linker between subunits and had ˜70% fluorescence of smURFP in bacteria (FIG. 2c). TDsmURFP (33 kD) ran near smURFP. tdTomato (54 kD) and IFP1.4 (37 kD) confirmed the dimeric nature of smURFP (FIG. 9a,b). To confirm covalent BV attachment, the FPs were run on a denaturing gel, and BV was detected with zinc²⁵. […] C52 is evolutionarily conserved among all APCαs and covalently attaches PCB (FIGS. 6 and 10a). The C52S mutation eliminated smURFP fluorescence (FIG. 10b,c), and C52 remains the BV attachment site. […]

[2] = target: the molecule itself; test: native PAGE, self-association (homodimer)
From the text: as §1, §2

[3] = target: the molecule itself; test: stoichiometry column of the table of biophysical properties (self-association)

Row | Protein | binding result [3] | other results
1 | B1 |  | binding result [1]: binds
2 | B2 |  | binding result [2]: binds
3 | B3 | binds | 
4 | B4 | binds | 
